As usually defined, the Kd is the equilibrium constant for the complex coming apart.

Assay [1] addresses T1, human Siglec-15 V-set domain (human, UniProt Q6ZMC9 39-165).
T1 construct: range 39-165; Purified to a single 14 kDa band; Used as the analyte in SPR; also called hSiglec-15 (39-165) V-set domain; human Siglec-15 protein
T1 sequence (looked up): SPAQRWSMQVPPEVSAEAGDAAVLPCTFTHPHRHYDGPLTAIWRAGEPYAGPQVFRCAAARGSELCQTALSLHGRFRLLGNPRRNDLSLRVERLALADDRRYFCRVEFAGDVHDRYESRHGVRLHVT
As to the kind of experiment: SPR, Biacore T200; antibody captured via anti-human IgG on CM5 chip, antigen as analyte, 1:1 binding model. Here is the method: (§1) As a running buffer, HBS-EP+ (10 mM HEPES pH 7.4, 0.15 M NaCl, 3 mM EDTA, 0.05% surfactant P20) was used. On the chip having the antibody bound thereto, a dilution series of an antigen solution (0.003 to 7 nM) was added at a flow rate of 90 μL/min for 233 seconds, and subsequently, the dissociation phase was monitored for 2000 to 3600 seconds. As a regeneration solution, 3 M MgCl₂ was added at a flow rate of 10 μL/min for 30 seconds. In the analysis of data, a 1:1 binding model of analysis software (Biacore T200 Evaluation software, version 1.0) was used, and an association rate constant (kon), a dissociation rate constant (koff), and a dissociation constant (KD; KD=koff/kon) were calculated.
Background: SPR reads the build-up and loss of mass on a sensor chip optically.

Assay [2] deals with T1, human Siglec-15 V-set domain. Nature of the assay: SPR, Biacore T200; ratio of KD values against K3-1115. Here is the method: as §1

B1: K3-1115 antibody (antibody, human IgG2, kappa, V domains shown)
VH: EVQLVESGGGLVQPGGSLRLSCAASGFNFNDYFMNWVRQAPGKGLEWVAQIRNKIYTYATFYAASVKGRFTISRDNAKNSLYLQMNSLRAEDTAVYYCARSLTGGDYFDYWGQGTLVTVSS
VL: EILMTQSPATLSLSPGERATLSCRASQSVTISGYSFIHWYQQKPGQAPRLLIYRASNLASGIPARFSGSGSGTDFTLTISSLEPEDFALYYCQQSRKSPWTFGQGTKVEIKR
notes: Humanized form of the rat antibody #32A1; Full-length IgG made in FreeStyle 293F cells; Used as the control antibody; In SPR it was captured through an anti-human IgG antibody; also called h#32A1-H1-1/L2-15
As to B1, in assay [1], the dissociation constant Kd stood at 260 pM.

B2: K3-1115/T103E antibody (antibody, human IgG2, kappa, V domains shown)
VH: EVQLVESGGGLVQPGGSLRLSCAASGFNFNDYFMNWVRQAPGKGLEWVAQIRNKIYTYATFYAASVKGRFTISRDNAKNSLYLQMNSLRAEDTAVYYCARSLEGGDYFDYWGQGTLVTVSS
VL: EILMTQSPATLSLSPGERATLSCRASQSVTISGYSFIHWYQQKPGQAPRLLIYRASNLASGIPARFSGSGSGTDFTLTISSLEPEDFALYYCQQSRKSPWTFGQGTKVEIKR
notes: Full-length IgG made in FreeStyle 293F cells
In the case of B2, in assay [2], the “fold enhancement of affinity compared with K3-1115” value is ~60 times. In assay [1], this molecule gave a Kd of 4.1 pM.

Values taken from patent US20150056189A1 (Daiichi Sankyo, published 2015).
